# Laboratory results reported in US20180155450A1 (Sanofi, published 2018).
# T1: recombinant human IL4 (human, UniProt P05112 25-153)
# T1 sequence (looked up): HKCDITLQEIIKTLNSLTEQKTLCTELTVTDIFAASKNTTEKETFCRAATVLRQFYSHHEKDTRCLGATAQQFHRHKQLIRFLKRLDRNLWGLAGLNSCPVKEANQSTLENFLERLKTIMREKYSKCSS
# T2: recombinant human IL4 (human, UniProt P05112 25-153)
# T2 construct: bought; also called Antigen1
# T2 sequence (looked up): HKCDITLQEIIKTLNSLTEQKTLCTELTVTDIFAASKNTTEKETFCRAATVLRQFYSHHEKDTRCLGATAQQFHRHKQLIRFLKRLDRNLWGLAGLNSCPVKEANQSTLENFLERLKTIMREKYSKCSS
# B1: CODV-Ig Batch ID 505 (IL4 × IL13 on HC; L1 GQPKAAP, L2 TKGPS, L3 S, L4 RT) (bispecific antibody)
# heavy: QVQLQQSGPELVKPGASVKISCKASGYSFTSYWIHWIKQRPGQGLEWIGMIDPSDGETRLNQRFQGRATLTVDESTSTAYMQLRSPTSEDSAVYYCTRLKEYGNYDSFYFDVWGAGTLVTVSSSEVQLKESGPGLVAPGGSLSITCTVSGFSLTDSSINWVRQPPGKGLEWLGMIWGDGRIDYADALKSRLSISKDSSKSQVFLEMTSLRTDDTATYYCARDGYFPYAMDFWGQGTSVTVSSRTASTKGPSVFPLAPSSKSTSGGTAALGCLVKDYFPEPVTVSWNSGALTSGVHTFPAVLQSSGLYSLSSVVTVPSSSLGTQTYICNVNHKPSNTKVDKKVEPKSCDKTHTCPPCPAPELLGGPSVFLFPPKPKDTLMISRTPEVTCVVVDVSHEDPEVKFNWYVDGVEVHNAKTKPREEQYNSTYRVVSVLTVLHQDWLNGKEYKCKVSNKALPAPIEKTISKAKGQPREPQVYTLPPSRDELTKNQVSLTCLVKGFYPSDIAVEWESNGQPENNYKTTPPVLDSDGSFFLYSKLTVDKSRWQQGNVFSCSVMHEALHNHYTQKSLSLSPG
# light: DIVLTQSPASLAVSLGQRATISCRASESVDSYGQSYMHWYQQKAGQPPKLLIYLASNLESGVPARFSGSGSRTDFTLTIDPVQAEDAATYYCQQNAEDSRTFGGGTKLEIKGQPKAAPDIQMTQSPASLSVSVGDTITLTCHASQNIDVWLSWFQQKPGNIPKLLIYKASNLHTGVPSRFSGSGSGTGFTLTISSLQPEDIATYYCQQAHSYPFTFGGGTKLEIKTKGPSRTVAAPSVFIFPPSDEQLKSGTASVVCLLNNFYPREAKVQWKVDNALQSGNSQESVTEQDSKDSTYSLSSTLTLSKADYEKHKVYACEVTHQGLSSPVTKSFNRGEC
# B2: CODV-Ig Batch ID 507 (IL4 × IL13 on HC; L1 GQPKAAP, L2 QPKAA, L3 S, L4 RT) (bispecific antibody)
# heavy: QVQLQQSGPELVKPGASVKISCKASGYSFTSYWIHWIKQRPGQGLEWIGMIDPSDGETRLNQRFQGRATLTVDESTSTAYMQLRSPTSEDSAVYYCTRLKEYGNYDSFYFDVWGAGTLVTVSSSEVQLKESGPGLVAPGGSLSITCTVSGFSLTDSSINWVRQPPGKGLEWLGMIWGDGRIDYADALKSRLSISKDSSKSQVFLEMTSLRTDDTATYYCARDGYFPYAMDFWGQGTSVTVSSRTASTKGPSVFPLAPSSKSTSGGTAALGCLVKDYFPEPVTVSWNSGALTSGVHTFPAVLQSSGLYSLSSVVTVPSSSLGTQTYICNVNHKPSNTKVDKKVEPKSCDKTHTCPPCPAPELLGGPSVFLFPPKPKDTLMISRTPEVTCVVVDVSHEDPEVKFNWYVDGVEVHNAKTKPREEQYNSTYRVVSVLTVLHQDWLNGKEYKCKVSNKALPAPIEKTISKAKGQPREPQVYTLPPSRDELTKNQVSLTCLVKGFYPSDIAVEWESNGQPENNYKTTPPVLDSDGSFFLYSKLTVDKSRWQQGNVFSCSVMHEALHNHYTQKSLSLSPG
# light: DIVLTQSPASLAVSLGQRATISCRASESVDSYGQSYMHWYQQKAGQPPKLLIYLASNLESGVPARFSGSGSRTDFTLTIDPVQAEDAATYYCQQNAEDSRTFGGGTKLEIKGQPKAAPDIQMTQSPASLSVSVGDTITLTCHASQNIDVWLSWFQQKPGNIPKLLIYKASNLHTGVPSRFSGSGSGTGFTLTISSLQPEDIATYYCQQAHSYPFTFGGGTKLEIKQPKAARTVAAPSVFIFPPSDEQLKSGTASVVCLLNNFYPREAKVQWKVDNALQSGNSQESVTEQDSKDSTYSLSSTLTLSKADYEKHKVYACEVTHQGLSSPVTKSFNRGEC
# B3: CODV-Ig Batch ID 504 (IL4 × IL13 on HC; L1 RTVAAPS, L2 QPKAA, L3 S, L4 TK) (bispecific antibody)
# heavy: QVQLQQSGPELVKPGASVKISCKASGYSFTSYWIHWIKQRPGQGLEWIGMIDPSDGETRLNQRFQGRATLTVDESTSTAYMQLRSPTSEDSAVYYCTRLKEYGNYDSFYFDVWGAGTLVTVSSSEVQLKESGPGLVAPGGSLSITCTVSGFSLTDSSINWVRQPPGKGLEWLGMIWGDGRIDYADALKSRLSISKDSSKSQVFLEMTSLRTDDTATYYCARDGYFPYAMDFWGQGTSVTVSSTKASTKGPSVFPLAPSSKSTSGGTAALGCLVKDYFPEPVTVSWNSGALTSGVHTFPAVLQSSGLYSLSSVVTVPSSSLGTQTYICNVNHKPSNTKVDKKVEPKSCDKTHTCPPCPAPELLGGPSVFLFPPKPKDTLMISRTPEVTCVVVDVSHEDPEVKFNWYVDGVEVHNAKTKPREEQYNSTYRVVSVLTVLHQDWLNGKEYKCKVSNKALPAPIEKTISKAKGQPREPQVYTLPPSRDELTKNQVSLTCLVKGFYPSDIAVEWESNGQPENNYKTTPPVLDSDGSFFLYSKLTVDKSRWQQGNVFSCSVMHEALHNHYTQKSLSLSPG
# light: DIVLTQSPASLAVSLGQRATISCRASESVDSYGQSYMHWYQQKAGQPPKLLIYLASNLESGVPARFSGSGSRTDFTLTIDPVQAEDAATYYCQQNAEDSRTFGGGTKLEIKRTVAAPSDIQMTQSPASLSVSVGDTITLTCHASQNIDVWLSWFQQKPGNIPKLLIYKASNLHTGVPSRFSGSGSGTGFTLTISSLQPEDIATYYCQQAHSYPFTFGGGTKLEIKQPKAARTVAAPSVFIFPPSDEQLKSGTASVVCLLNNFYPREAKVQWKVDNALQSGNSQESVTEQDSKDSTYSLSSTLTLSKADYEKHKVYACEVTHQGLSSPVTKSFNRGEC
# B4: CODV-Ig Batch ID 502 (IL4 × IL13 on HC; L1 ASTKGPS, L2 TVAAP, L3 S, L4 QP) (bispecific antibody)
# heavy: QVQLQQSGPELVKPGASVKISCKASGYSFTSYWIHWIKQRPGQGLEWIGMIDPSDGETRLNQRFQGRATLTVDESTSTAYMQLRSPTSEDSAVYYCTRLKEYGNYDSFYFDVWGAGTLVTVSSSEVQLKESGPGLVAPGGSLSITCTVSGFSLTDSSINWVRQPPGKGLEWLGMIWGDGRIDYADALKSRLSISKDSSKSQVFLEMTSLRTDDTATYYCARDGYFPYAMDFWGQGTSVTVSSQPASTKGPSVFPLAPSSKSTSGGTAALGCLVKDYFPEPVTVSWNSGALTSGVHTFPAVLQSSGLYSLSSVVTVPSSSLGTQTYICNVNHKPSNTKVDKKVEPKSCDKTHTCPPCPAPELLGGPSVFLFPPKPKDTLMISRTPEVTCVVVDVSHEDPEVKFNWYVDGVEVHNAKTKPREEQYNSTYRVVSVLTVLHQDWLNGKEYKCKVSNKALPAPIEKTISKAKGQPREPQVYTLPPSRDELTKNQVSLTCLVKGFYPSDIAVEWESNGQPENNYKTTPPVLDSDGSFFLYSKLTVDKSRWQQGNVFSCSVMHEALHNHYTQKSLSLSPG
# light: DIVLTQSPASLAVSLGQRATISCRASESVDSYGQSYMHWYQQKAGQPPKLLIYLASNLESGVPARFSGSGSRTDFTLTIDPVQAEDAATYYCQQNAEDSRTFGGGTKLEIKASTKGPSDIQMTQSPASLSVSVGDTITLTCHASQNIDVWLSWFQQKPGNIPKLLIYKASNLHTGVPSRFSGSGSGTGFTLTISSLQPEDIATYYCQQAHSYPFTFGGGTKLEIKTVAAPRTVAAPSVFIFPPSDEQLKSGTASVVCLLNNFYPREAKVQWKVDNALQSGNSQESVTEQDSKDSTYSLSSTLTLSKADYEKHKVYACEVTHQGLSSPVTKSFNRGEC
# B5: CODV-Ig Batch ID 501 (IL4 × IL13 on HC; L1 ASTKGPS, L2 TKGPS, L3 S, L4 RT) (bispecific antibody)
# heavy: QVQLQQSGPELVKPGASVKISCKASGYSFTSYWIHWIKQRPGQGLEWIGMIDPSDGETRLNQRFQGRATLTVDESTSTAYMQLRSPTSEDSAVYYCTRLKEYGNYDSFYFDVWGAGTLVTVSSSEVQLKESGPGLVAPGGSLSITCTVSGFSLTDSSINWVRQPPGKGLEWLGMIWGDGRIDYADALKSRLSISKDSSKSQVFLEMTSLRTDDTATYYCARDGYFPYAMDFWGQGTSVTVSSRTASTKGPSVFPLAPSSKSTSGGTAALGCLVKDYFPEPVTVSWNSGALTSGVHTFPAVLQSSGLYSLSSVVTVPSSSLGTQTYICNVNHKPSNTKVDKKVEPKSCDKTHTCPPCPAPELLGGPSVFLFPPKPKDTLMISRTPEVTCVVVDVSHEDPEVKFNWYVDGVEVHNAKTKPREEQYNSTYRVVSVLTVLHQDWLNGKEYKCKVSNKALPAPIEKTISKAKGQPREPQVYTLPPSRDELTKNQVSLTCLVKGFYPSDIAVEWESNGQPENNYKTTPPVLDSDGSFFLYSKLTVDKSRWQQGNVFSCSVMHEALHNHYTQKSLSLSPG
# light: DIVLTQSPASLAVSLGQRATISCRASESVDSYGQSYMHWYQQKAGQPPKLLIYLASNLESGVPARFSGSGSRTDFTLTIDPVQAEDAATYYCQQNAEDSRTFGGGTKLEIKASTKGPSDIQMTQSPASLSVSVGDTITLTCHASQNIDVWLSWFQQKPGNIPKLLIYKASNLHTGVPSRFSGSGSGTGFTLTISSLQPEDIATYYCQQAHSYPFTFGGGTKLEIKTKGPSRTVAAPSVFIFPPSDEQLKSGTASVVCLLNNFYPREAKVQWKVDNALQSGNSQESVTEQDSKDSTYSLSSTLTLSKADYEKHKVYACEVTHQGLSSPVTKSFNRGEC
# B6: CODV-Ig Batch ID 503 (IL4 × IL13 on HC; L1 ASTKGPS, L2 TVAAP, L3 S, L4 SS) (bispecific antibody)
# heavy: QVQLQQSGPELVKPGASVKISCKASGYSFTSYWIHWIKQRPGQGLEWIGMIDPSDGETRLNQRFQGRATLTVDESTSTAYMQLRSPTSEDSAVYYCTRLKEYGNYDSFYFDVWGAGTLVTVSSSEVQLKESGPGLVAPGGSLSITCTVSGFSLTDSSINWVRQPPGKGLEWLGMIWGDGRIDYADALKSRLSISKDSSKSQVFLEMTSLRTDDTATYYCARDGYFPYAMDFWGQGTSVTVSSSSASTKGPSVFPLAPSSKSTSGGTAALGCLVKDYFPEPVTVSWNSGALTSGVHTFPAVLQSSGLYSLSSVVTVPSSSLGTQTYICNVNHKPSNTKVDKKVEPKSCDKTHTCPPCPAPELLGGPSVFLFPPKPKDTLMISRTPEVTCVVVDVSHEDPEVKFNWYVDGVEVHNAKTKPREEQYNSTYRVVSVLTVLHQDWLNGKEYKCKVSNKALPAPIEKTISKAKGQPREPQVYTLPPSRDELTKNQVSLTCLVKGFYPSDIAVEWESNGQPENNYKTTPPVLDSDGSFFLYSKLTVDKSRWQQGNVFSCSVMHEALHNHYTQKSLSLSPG
# light: DIVLTQSPASLAVSLGQRATISCRASESVDSYGQSYMHWYQQKAGQPPKLLIYLASNLESGVPARFSGSGSRTDFTLTIDPVQAEDAATYYCQQNAEDSRTFGGGTKLEIKASTKGPSDIQMTQSPASLSVSVGDTITLTCHASQNIDVWLSWFQQKPGNIPKLLIYKASNLHTGVPSRFSGSGSGTGFTLTISSLQPEDIATYYCQQAHSYPFTFGGGTKLEIKTVAAPRTVAAPSVFIFPPSDEQLKSGTASVVCLLNNFYPREAKVQWKVDNALQSGNSQESVTEQDSKDSTYSLSSTLTLSKADYEKHKVYACEVTHQGLSSPVTKSFNRGEC
# B7: CODV-Ig Batch ID 203 (IL4 × IL13 on HC; L1=7, L2=3, L3=1, L4=2) (bispecific antibody)
# chain 1: not shown
# chain 2: DIVLTQSPASLAVSLGQRATISCRASESVDSYGQSYMHWYQQKAGQPPKLLIYLASNLESGVPARFSGSGSRTDFTLTIDPVQAEDAATYYCQQNAEDSRTFGGGTKLEIKGGGGGGGDIQMTQSPASLSVSVGDTITLTCHASQNIDVWLSWFQQKPGNIPKLLIYKASNLHTGVPSRFSGSGSGTGFTLTISSLQPEDIATYYCQQAHSYPFTFGGGTKLEIKGGGRTVAAPSVFIFPPSDEQLKSGTASVVCLLNNFYPREAKVQWKVDNALQSGNSQESVTEQDSKDSTYSLSSTLTLSKADYEKHKVYACEVTHQGLSSPVTKSFNRGEC
# How the values were obtained:
# recombinant human IL4 [1] = molecular target: T1, recombinant human IL4; test: cell-based or functional assay
# recombinant human IL4 [2] = molecular target: T1, recombinant human IL4; test: SPR (Biacore 3000), antibody captured, antigen as analyte
# Procedure: (§1) Kinetic binding analysis by Biacore was performed as follows. Surface plasmon resonance technology on a Biacore 3000 (GE Healthcare) was used for detailed kinetic characterization of purified antibodies. […] Chip surfaces were regenerated with 10 mM glycine pH 2.5. Kinetic parameters were analyzed and calculated in the BIAevaluation program package v4.1 using a flow cell without captured antibody as a reference.
# recombinant human IL13 = molecular target: T3, recombinant human IL13 (human, UniProt P35225 35-146, limits assumed); test: SPR (Biacore 3000), captured CODV-Ig, antigen as analyte;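 also: kd derived from kinetic fits in BIAevaluation 4.1, with signals referenced against a flow cell lacking captured antibody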
# T3 construct: bought; also called Antigen2
# T3 sequence (P35225 35-146 limits assumed): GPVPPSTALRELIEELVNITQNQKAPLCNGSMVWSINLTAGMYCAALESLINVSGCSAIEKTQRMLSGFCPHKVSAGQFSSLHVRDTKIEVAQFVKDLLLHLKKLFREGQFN
# Procedure: as §1
# recombinant human IL4 [3] = molecular target: T2, recombinant human IL4; test: as above
# Procedure: as §1
Binder,"IC50 Cellular Assay IL4 [nM] (HEK-Blue IL-4/IL-13 reporter cells, SEAP) (recombinant human IL4 [1])",Kd (recombinant human IL4 [2]),Kd (recombinant human IL13),Kd (recombinant human IL4 [3])
B1,0.033 nM,6 pM,–,–
B2,0.04 nM,1 pM,–,–
B3,0.042 nM,8 pM,–,–
B4,0.049 nM,3 pM,–,–
B5,0.034 nM,1 pM,–,–
B6,0.047 nM,3 pM,–,–
B7,–,–,0.046 nM,0.08 nM
